Laboratory results published in patent US20210032664, “ENGINEERED MEGANUCLEASES WITH RECOGNITION SEQUENCES FOUND IN THE HUMAN BETA-2 MICROGLOBULIN GENE” (Precision Biosciences, Inc., published 2021).

Legend:
Assay in all cases: cell_activity; human T cells, 1 ug mRNA, day 3
Details in all cases: tags: N-terminal SV40 NLS
B2M 13-14x.283 = molecular target: T1, B2M 13-14x.283 (Artificial Sequence)
T1 chain: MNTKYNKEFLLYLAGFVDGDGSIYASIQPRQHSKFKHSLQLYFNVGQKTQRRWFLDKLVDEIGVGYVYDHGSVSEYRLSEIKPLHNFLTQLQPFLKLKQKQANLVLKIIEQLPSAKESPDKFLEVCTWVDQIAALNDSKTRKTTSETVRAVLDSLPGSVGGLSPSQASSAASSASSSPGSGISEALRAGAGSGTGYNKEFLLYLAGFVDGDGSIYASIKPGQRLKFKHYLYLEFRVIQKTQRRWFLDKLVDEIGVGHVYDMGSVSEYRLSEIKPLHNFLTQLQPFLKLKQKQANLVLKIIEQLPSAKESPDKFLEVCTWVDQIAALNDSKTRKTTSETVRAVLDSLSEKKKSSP
Protocol: (§1) Donor human T cells were stimulated with anti-CD3 and anti-CD28 antibodies for 3 days, then electroporated with mRNA encoding a given B2M 13-14 meganuclease (1 μg) using the Amaxa 4D-Nucleofector (Lonza) according to the manufacturer's instructions. To look for the loss of B2M surface expression, cells were stained with an antibody recognizing β-2 microglobulin (BD Biosciences) as well as an antibody recognizing CD3 (BioLegend), a marker of T cells.

B2M 13-14x.362 = molecular target: T2, B2M 13-14x.362 (Artificial Sequence)
T2 chain: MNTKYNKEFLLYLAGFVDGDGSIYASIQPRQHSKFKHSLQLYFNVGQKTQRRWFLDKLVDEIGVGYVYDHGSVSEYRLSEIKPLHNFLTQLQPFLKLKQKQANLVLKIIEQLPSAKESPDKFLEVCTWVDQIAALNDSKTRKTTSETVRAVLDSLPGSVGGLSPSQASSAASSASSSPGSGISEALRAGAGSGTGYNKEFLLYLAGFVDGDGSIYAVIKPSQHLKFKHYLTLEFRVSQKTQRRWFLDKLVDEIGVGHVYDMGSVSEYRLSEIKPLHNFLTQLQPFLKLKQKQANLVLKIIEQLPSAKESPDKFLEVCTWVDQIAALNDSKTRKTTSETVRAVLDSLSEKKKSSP
Protocol: as §1

B2M 13-14x.479 = molecular target: T3, B2M 13-14x.479 (Artificial Sequence)
T3 chain: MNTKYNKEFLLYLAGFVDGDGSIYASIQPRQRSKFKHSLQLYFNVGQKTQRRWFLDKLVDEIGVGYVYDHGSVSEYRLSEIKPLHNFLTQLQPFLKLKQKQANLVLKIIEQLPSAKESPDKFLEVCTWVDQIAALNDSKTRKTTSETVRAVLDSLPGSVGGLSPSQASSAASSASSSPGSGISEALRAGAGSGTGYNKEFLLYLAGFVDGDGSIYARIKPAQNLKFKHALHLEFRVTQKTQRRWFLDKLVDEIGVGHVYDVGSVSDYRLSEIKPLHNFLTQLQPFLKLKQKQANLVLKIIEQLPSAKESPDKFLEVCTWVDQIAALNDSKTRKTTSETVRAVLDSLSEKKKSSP
Protocol: as §1

B2M 13-14x.338 = molecular target: T4, B2M 13-14x.338 (Artificial Sequence)
T4 chain: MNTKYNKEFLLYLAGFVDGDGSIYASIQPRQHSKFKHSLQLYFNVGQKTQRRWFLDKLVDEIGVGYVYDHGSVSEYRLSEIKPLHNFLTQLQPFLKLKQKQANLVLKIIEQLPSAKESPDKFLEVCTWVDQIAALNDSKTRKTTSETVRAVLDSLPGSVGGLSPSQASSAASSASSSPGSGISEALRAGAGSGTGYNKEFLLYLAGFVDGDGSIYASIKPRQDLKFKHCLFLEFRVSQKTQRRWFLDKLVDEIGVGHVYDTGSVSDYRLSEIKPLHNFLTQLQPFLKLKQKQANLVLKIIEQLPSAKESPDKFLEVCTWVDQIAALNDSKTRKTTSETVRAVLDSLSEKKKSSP
Protocol: as §1

B2M 13-14x.378 = molecular target: T5, B2M 13-14x.378 (Artificial Sequence)
T5 chain: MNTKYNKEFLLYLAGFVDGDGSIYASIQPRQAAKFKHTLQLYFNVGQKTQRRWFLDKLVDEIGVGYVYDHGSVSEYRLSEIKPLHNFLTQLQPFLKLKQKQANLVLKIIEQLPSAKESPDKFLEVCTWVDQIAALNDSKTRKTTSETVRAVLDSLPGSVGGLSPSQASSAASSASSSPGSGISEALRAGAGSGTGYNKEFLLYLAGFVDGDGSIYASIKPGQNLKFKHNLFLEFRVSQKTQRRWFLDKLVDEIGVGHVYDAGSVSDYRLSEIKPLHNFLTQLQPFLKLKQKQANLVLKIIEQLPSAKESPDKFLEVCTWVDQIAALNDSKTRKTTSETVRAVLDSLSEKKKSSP
Protocol: as §1

B2M 13-14x.556 = molecular target: T6, B2M 13-14x.556 (Artificial Sequence)
T6 chain: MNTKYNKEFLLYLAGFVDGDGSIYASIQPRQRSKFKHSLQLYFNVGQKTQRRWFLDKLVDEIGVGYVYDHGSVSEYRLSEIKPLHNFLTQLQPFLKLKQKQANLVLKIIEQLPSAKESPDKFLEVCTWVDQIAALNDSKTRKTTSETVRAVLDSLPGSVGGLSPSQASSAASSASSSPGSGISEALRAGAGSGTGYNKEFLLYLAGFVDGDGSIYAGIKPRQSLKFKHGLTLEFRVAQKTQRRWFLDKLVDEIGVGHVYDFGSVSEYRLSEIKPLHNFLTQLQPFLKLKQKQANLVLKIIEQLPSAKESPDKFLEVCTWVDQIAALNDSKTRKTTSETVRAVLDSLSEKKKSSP
Protocol: as §1

B2M 13-14x.464 = molecular target: T7, B2M 13-14x.464 (Artificial Sequence)
T7 chain: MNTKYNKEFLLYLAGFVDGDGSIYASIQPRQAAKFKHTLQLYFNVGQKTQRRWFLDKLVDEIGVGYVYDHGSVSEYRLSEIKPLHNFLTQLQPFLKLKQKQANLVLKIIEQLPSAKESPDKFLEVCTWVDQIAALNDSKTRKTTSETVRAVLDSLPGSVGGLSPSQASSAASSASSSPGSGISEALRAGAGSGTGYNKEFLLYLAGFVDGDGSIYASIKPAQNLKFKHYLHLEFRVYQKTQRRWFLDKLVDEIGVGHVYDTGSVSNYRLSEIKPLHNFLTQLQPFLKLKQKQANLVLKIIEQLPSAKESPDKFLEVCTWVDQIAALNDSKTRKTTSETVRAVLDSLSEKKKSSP
Protocol: as §1

B1: B2M 13-14 recognition sequence (dsDNA)
DNA 1: CTATCTCTTGTACTACACTGAA
DNA 2: TTCAGTGTAGTACAAGAGATAG
With B1 the activity (B2M 13-14x.283) was 49.3 % B2M-negative, the activity (B2M 13-14x.362) was 37.8 % B2M-negative and the activity (B2M 13-14x.479) was 67.2 % B2M-negative. It also gave an activity (B2M 13-14x.338) of 4.68 % B2M-negative, an activity (B2M 13-14x.378) of 3.54 % B2M-negative and an activity (B2M 13-14x.556) of 11.8 % B2M-negative. The activity (B2M 13-14x.464) was 8.24 % B2M-negative.
